Measurements published in US20240043883A1 (Board of Trustees of Michigan State University, priority 2021, published 2024).

Experiments:
[1] = Coupled enzyme assay (ADH, with and without MSAD): hydratase and hydratase/decarboxylase activity and product profile of Cg10062 and variants; format: biochemical; conditions: for Rate in the absence of MSAD / Rate in the presence of MSAD: ACA 0.5 mM, pH 8, enzyme final concentration differs per variant (0.025-1.50 mg mL^−1), rates not directly comparable; for Product Ratio (%) acetaldehyde / Product Ratio (%) malonate semialdehyde: from Cg10062 activity in the presence and absence of MSAD; for Product Ratio (%) acetaldehyde: * from non-enzymatic decarboxylation of malonate semialdehyde; for Product Ratio (%) malonate semialdehyde: ACA substrate, pH 8.0, 25° C.
Experimental: (§1) Steady-state kinetics were carried out using a Molecular Devices SpectraMax iD3 multi-mode microplate reader and Shimadzu UV2600 spectrophotometer. All assays were carried out in triplicate at 25° C. in 100 mM sodium phosphate pH 8.0 with a final volume of 200 μL, unless otherwise specified. The reduction of acetaldehyde by NADH-dependent alcohol dehydrogenase (ADH) was monitored by following the oxidation of NADH at 340 nm (ε=6220 M^−1 cm^−1).
(§2) All stock solutions, except ADH, required for the kinetics assays used for determining hydratase and hydratase/decarboxylase activities were prepared in 100 mM sodium phosphate pH 8.0. […] Stock solutions of ADH were prepared using deionized water, as recommended by the manufacturer. […] The final pH of each assay was 8.
(§3) The amount of enzyme used in each assay was varied in order to observe measurable activity. Thus, the rates obtained from this experiment were not used directly to compare the enzyme activity. These activities were only used for establishing the product profile of each enzyme. The ratios of MSA and acetaldehyde formed by each enzyme was determined by the coupled enzyme assay (FIG. 13), using the differences in rates in the presence and absence of MSAD (Table 10). […] All other components used for steady-state kinetics were identical to those used in the initial screening assays.

[2] = substrate: C#CC(=O)O; assay: purified protein, by the assay type; format: biochemical, Corynebacterium glutamicum; conditions: other: ACA, 100 mM sodium phosphate pH 8.0, 25 °C
Experimental: as §1, §2, §3

Molecule	Rate in the absence of MSAD [1]	Rate in the presence of MSAD [1]	other results
Cg10062(E114N): Novel hydratase-only Cg10062 variant with E114N mutation, SEQ ID NO: 24 and 62 (protein, Cg10062(E114N) from Corynebacterium glutamicum codon-optimized for Escherichia coli) PTYTCWSQRIRISREAKQRIAEAITDAHHELAHAPKYLVQVIFNEVEPDSYFIAAQSASENHIWVQATIRSGRTEKQKEELLLRLTQEIALILGIPNEEVWVYITEIPGSNMTNYGRLLMEPGEEEKWFNSLPEGLRERLTELEGSSE	no activity	67 µM/min	Product Ratio (%) acetaldehyde [1]: <1* %; Product Ratio (%) malonate semialdehyde [1]: >99%; product of ACA hydration ([1]; in words): produces only malonic semialdehyde
E114A: Cg10062 variant with E114A mutation, SEQ ID NO: 32 and 70 (protein, Cg10062(E114A) from Corynebacterium glutamicum codon-optimized for Escherichia coli) PTYTCWSQRIRISREAKQRIAEAITDAHHELAHAPKYLVQVIFNEVEPDSYFIAAQSASENHIWVQATIRSGRTEKQKEELLLRLTQEIALILGIPNEEVWVYITEIPGSNMTAYGRLLMEPGEEEKWFNSLPEGLRERLTELEGSSE	11 µM/min	15 µM/min	
Y103A: Cg10062 variant with Y103A mutation, SEQ ID NO: 30 and 68 (protein, Cg10062(Y103A) from Corynebacterium glutamicum codon-optimized for Escherichia coli) PTYTCWSQRIRISREAKQRIAEAITDAHHELAHAPKYLVQVIFNEVEPDSYFIAAQSASENHIWVQATIRSGRTEKQKEELLLRLTQEIALILGIPNEEVWVAITEIPGSNMTEYGRLLMEPGEEEKWFNSLPEGLRERLTELEGSSE	16 µM/min	38 µM/min	
Y103F: Cg10062 variant with Y103F mutation, SEQ ID NO: 31 and 69 (protein, Cg10062(Y103F) from Corynebacterium glutamicum codon-optimized for Escherichia coli) PTYTCWSQRIRISREAKQRIAEAITDAHHELAHAPKYLVQVIFNEVEPDSYFIAAQSASENHIWVQATIRSGRTEKQKEELLLRLTQEIALILGIPNEEVWVFITEIPGSNMTEYGRLLMEPGEEEKWFNSLPEGLRERLTELEGSSE	43 µM/min	65 µM/min	
R70K: Cg10062 variant with R70K mutation, SEQ ID NO: 27 and 65 (protein, Cg10062(R70K) from Corynebacterium glutamicum codon-optimized for Escherichia coli) PTYTCWSQRIRISREAKQRIAEAITDAHHELAHAPKYLVQVIFNEVEPDSYFIAAQSASENHIWVQATIKSGRTEKQKEELLLRLTQEIALILGIPNEEVWVYITEIPGSNMTEYGRLLMEPGEEEKWFNSLPEGLRERLTELEGSSE	no activity	no activity	
R70A: Cg10062 variant with R70A mutation, SEQ ID NO: 26 and 64 (protein, Cg10062(R70A) from Corynebacterium glutamicum codon-optimized for Escherichia coli) PTYTCWSQRIRISREAKQRIAEAITDAHHELAHAPKYLVQVIFNEVEPDSYFIAAQSASENHIWVQATIASGRTEKQKEELLLRLTQEIALILGIPNEEVWVYITEIPGSNMTEYGRLLMEPGEEEKWFNSLPEGLRERLTELEGSSE	no activity	no activity	
H28A: Cg10062 variant with H28A mutation, SEQ ID NO: 25 and 63 (protein, Cg10062(H28A) from Corynebacterium glutamicum codon-optimized for Escherichia coli) PTYTCWSQRIRISREAKQRIAEAITDAAHELAHAPKYLVQVIFNEVEPDSYFIAAQSASENHIWVQATIRSGRTEKQKEELLLRLTQEIALILGIPNEEVWVYITEIPGSNMTEYGRLLMEPGEEEKWFNSLPEGLRERLTELEGSSE	4.5 µM/min	12 µM/min	
Cg10062(E114D-Y103F): Cg10062 double variant E114D-Y103F, SEQ ID NO: 33 and 71 (protein, Cg10062(E114D-Y103F) from Corynebacterium glutamicum codon-optimized for Escherichia coli) PTYTCWSQRIRISREAKQRIAEAITDAHHELAHAPKYLVQVIFNEVEPDSYFIAAQSASENHIWVQATIRSGRTEKQKEELLLRLTQEIALILGIPNEEVWVFITEIPGSNMTDYGRLLMEPGEEEKWFNSLPEGLRERLTELEGSSE	no activity	39 µM/min	Product Ratio (%) acetaldehyde [1]: <1* %; Product Ratio (%) malonate semialdehyde [1]: >99%
R73A: Cg10062 variant with R73A mutation, SEQ ID NO: 28 and 66 (protein, Cg10062(R73A) from Corynebacterium glutamicum codon-optimized for Escherichia coli) PTYTCWSQRIRISREAKQRIAEAITDAHHELAHAPKYLVQVIFNEVEPDSYFIAAQSASENHIWVQATIRSGATEKQKEELLLRLTQEIALILGIPNEEVWVYITEIPGSNMTEYGRLLMEPGEEEKWFNSLPEGLRERLTELEGSSE	no activity	no activity	
Corynebacterium glutamicum Cg10062 variant E114Q, SEQ ID NO: 60 (Corynebacterium glutamicum ATCC 13032; E115Q) (protein) PTYTCWSQRIRISREAKQRIAEAITDAHHELAHAPKYLVQVIFNEVEPDSYFIAAQSASENHIWVQATIRSGRTEKQKEELLLRLTQEIALILGIPNEEVWVYITEIPGSNMTQYGRLLMEPGEEEKWFNSLPEGLRERLTELEGSSEENLYFQGLEHHHHHH			Km [2]: 64 ± 12 µM; kcat [2]: 0.66 ± 0.04 s⁻¹; kcat/Km [2]: 10800 ± 2100 M⁻¹ s⁻¹
Corynebacterium glutamicum Cg10062 variant E114D-Y103F, SEQ ID NO: 71 (Corynebacterium glutamicum ATCC 13032; E115D/Y104F) (protein) PTYTCWSQRIRISREAKQRIAEAITDAHHELAHAPKYLVQVIFNEVEPDSYFIAAQSASENHIWVQATIRSGRTEKQKEELLLRLTQEIALILGIPNEEVWVFITEIPGSNMTDYGRLLMEPGEEEKWFNSLPEGLRERLTELEGSSEENLYFQGLEHHHHHH			Km [2]: 72 ± 7 µM; kcat [2]: 0.34 ± 0.01 s⁻¹; kcat/Km [2]: 4700 ± 500 M⁻¹ s⁻¹
Corynebacterium glutamicum Cg10062 variant E114D, SEQ ID NO: 61 (Corynebacterium glutamicum ATCC 13032; E115D) (protein) PTYTCWSQRIRISREAKQRIAEAITDAHHELAHAPKYLVQVIFNEVEPDSYFIAAQSASENHIWVQATIRSGRTEKQKEELLLRLTQEIALILGIPNEEVWVYITEIPGSNMTDYGRLLMEPGEEEKWFNSLPEGLRERLTELEGSSEENLYFQGLEHHHHHH			Km [2]: 557 ± 62 µM; kcat [2]: 1.12 ± 0.05 s⁻¹; kcat/Km [2]: 2000 ± 200 M⁻¹ s⁻¹
